Assay results published in patent US20240317851A1 (LANOVA MEDICINES, published 2024).
Positions count from the first letter of the chain named. Where two headings read alike, the source gives them in different places.

B1: 67-C12E11 (antibody, V domains shown)
VH: EVQLQQSGPELVKPGASVKISCKTSGYTFTEYTMHWVKQSHGKSLEWIGGINPNNGGTSYNQKFKGKATLTVDKSSSTAYMELRSLTSEDSAVYYCARGMVVAFYFDSWGQGTTLTVSS
VL: DIQMTQSPASQSASLGESVTITCLASQTIGSWLAWYQQKPGKSPQLLIYAATSLADGVPSRFSGSGSGTKFSFKISSLQAEDFVSYYCQQLYSTPYTFGGGTKLEIK
notes: Tested as chimeric antibody
B2: 23-B2F11 (antibody, V domains shown)
VH: EVQLQQSGPELVKPGASVKISCKTSGYTFTEYTMHWVKQSHGRSLEWIGGINPNNGDTIYNQKFKGKATLTVDKSSSTAYMELRSLTSEDSAVYYCARRGGYGNFNFDYWGQGTTLTVSS
VL: DIQMTQSSSSFSVSLRDRVTITCKASEDIYNRLAWYQQKPGNAPRLLISGATSLETGVPSRFSGSGSGKDYTLSITSLQTEDVATYYCQQYWSSPYTFGGGTKVEIK
notes: Tested as chimeric antibody
B3: 83-F6A6 (antibody, V domains shown)
VH: QVQLQQSAPELARPGASVRMSCKASGYTFTTYTMHWVKQRPGQGLEWIGFIIPSSGYTEYNQNLKDKTTLTADKASSTAYMQLTSLTSEDSAVYYCARQFSLITTGFGYALDYWGQGTSVTVSS
VL: DIVMTQSRKFMSTSVGDRVSITCKASQDVSTAVAWYQQKPGQSPKLLLYWASTRHTGVPDRFTGSGSGTDYTLTISSVQAEDLALYYCQQHYSTPLTFGAGTKLELK
notes: Tested as chimeric antibody
B4: 97-C10E1-2 (antibody, V domains shown)
VH: EVQLQQSGPELVKPGASMKISCKASGYAFTGYTMNWVKQSHGKNLEWIGLSNPYNGGTIYNQKFKGKATLTVDKSSSTAYMELLSLTSEDSAVYYCARNYYYGSSYAYYYAMDYWGQGTSVTVSS
VL: QAVVTQESALTTSPGETVTLTCRSSTGAVTTSNYANWVQEKPDHLFTGLIGGTNNRAPGVPARFSGSLIGDKAALTITGAQTEDEAIYFCALWYSNHWVFGGGTKLTVL
notes: Tested as chimeric antibody; also called chimeric antibody 97-C10E1-2
B5: 97-C10E1-2-P1.z9 (antibody, V domains shown)
VH: QVQLQQSGAEVKKPGASVKVSCKASGYAFTGYTMNWVRQAPGQNLEWIGLSNPYNAGTIYNQKFKGRVTLTVDKSTSTVYMELLSLRSEDTAVYYCARNYYYGSSYAYYYAMDYWGQGTTVTVSS
VL: DAQMTQSPSSLSASVGDRVTITCRSSTGAVTTSNYANWVQQKPGKAFKGLIGGTNNRAPGVPARFSGSLSGTDAALTISSLQPEDFATYFCALWYSNHWVFGGGTKVEIK
B6: z5-MMAE (antibody, V domains shown)
VH: B5 VH with Q5V, N44G, L70M, L84S
VL: B5 VL with A2I, Q3V, M4V, A13T, Q41E, T72D, L81A
modifications: MMAE conjugated to the antibody; residues and drug load not stated
B7: z5-Eribulin (antibody, V domains shown)
VH: B5 VH with Q5V, N44G, L70M, L84S
VL: B5 VL with A2I, Q3V, M4V, A13T, Q41E, T72D, L81A
modifications: eribulin conjugated to the antibody; residues and drug load not stated
B8: 97-C10E1-2-P1.z4 (antibody, V domains shown)
VH: B5 VH with Q5V, N44G, L70M, L84S
VL: B5 VL
B9: 97-C10E1-2-P1.z7 (antibody, V domains shown)
VH: B5 VH
VL: EAVVTQSPATLSVSPGERATLSCRSSTGAVTTSNYANWVQEKPGQAFRGLIGGTNNRAPGIPARFSGSLSGDEATLTISSLQSEDFAVYFCALWYSNHWVFGGGTKVEIK

Columns and labels:
[1] = molecular target: T1, human Claudin 9 (human, UniProt O95484 1-217); assay: flow cytometry, HEK293/H_CLDN9 cells, Ab titrated from 100 nM
T1 construct: whole, on cells; also called CLDN9; CLND9
T1 sequence (looked up): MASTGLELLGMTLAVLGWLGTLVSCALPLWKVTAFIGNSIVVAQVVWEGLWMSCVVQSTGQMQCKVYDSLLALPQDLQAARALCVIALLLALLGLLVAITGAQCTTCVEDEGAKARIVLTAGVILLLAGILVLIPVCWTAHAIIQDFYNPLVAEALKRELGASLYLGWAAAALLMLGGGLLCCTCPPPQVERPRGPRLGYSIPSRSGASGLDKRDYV

[2] = molecular target: T2, human Claudin 3 (human, UniProt O15551 1-220); assay: flow cytometry, CHOK1/H_CLDN3 cells, Ab titrated from 100 nM
T2 construct: whole, on cells; also called CLDN3
T2 sequence (looked up): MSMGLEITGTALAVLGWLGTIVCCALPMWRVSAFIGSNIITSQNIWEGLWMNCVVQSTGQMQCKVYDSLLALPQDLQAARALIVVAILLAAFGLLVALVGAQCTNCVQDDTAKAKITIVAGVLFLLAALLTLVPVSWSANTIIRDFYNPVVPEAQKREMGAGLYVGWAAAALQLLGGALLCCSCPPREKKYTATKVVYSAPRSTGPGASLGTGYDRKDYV
Procedure: (§1) In this example, cell-based binding of hu Abs on human CLDN3 expressing cells were assessed using flow cytometry.
(§2) Briefly, the CHOK1/H_CLDN3 cells were incubated with hu-Abs (from 100 nM, 6 folds dilution, 8 points). After incubation at 4° C. for 60 minutes. Cells were pelleted and washed twice with 2% FBS/PBS buffer, and stained with fluorescent conjugated secondary antibody at 4° C. for 30 minutes. After that the cells were washed twice and resuspended in 80 μL of 2% FBS/PBS buffer. Fluorescent signal of binding was detected using Agilent. The EC50 was calculated using the GraphPad software.

[3] = molecular target: T3, human Claudin 6 (human, UniProt P56747 1-220); assay: flow cytometry, OVCAR3 cells (endogenous CLDN6), Ab titrated from 100 nM
T3 sequence (looked up): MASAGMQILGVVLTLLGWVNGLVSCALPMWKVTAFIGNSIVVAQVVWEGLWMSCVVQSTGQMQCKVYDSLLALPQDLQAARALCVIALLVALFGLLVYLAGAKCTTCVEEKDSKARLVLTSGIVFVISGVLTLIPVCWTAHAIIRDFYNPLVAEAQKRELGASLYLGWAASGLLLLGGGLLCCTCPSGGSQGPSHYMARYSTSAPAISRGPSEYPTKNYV
Procedure: In this example, FACS binding of chimeric Abs to Ovcar3 and Ov90 cells with claudin 6 endogenous expression were assessed using flow cytometry.
Claudin 6 endogenous expression cell line were incubated with chimeric Abs (from 100 nM, 6-fold dilution, 8 points) for 60 minutes at 4° C. Cells were pelleted and washed twice with 2% FBS/PBS buffer, and stained with fluorescent conjugated secondary antibody at 4° C. for 30 minutes. After that the cells were washed twice and resuspended in 80 μL of 2% FBS/PBS buffer. Fluorescent signal of binding was detected using Agilent. The EC50 was calculated using the GraphPad software.

[4] = molecular target: T3, human Claudin 6; assay: cell-based or functional assay
[5] = molecular target: T3, human Claudin 6; assay: cell-based or functional assay; remark: listed apart in the source
[6] = molecular target: T3, human Claudin 6; assay: flow cytometry, HEK293/H_CLDN6 cells, Ab titrated from 100 nM
Procedure: (§3) In this example, cell based binding of chimeric Abs on human CLDN6 & CLND9 over-expressing cell line were assessed using flow cytometry.
(§4) Briefly, the cells were incubated with chimeric Abs (from 100 nM, 6-fold dilution, 8 points) for 60 minutes at 4° C. Cells were pelleted and washed twice with 2% FBS/PBS buffer, and stained with fluorescent conjugated secondary antibody at 4° C. for 30 minutes. After that the cells were washed twice and resuspended in 80 μL of 2% FBS/PBS buffer. Fluorescent signal of binding was detected using Agilent. The EC50 was calculated using the GraphPad software (LaJolla, CA).

[7] = molecular target: T1, human Claudin 9; assay: flow cytometry, HEK293/H_CLDN9 cells, Ab titrated from 100 nM; remark: listed apart in the source
Procedure: as §3, §4

[8] = molecular target: T2, human Claudin 3; assay: flow cytometry, CHOK1/CLDN3 cells
Procedure: In this example, cell based binding of chimeric antibody 97-C10E1-2 toward human CLDN3 overexpression cell line were assessed using flow cytometry.
Briefly, cells were incubated with chimeric antibody (from 100 nM, 6 folds dilution, 8 points). After incubation at 4° C. for 60 minutes. Cells were pelleted and washed twice with 2% FBS/PBS buffer, and stained with fluorescent conjugated secondary antibody at 4° C. for 30 minutes. After that the cells were washed twice and resuspended in 80 μL of 2% FBS/PBS buffer. Fluorescent signal of binding was detected using Agilent. The EC50 was calculated using the GraphPad Software.

[9] = molecular target: T2, human Claudin 3; assay: flow cytometry, CHOK1/H_CLDN3 cells
Procedure: as §1, §2

[10] = molecular target: T3, human Claudin 6; assay: flow cytometry, HEK293/H_CLDN6 cells, Ab titrated from 100 nM; remark: listed apart in the source
Procedure: In this example, cell-based binding of humanized antibodies (hu Abs) on human CLDN6 expressing cells were assessed using flow cytometry.
Briefly, the HEK293/H_CLDN6 cells were incubated with hu-Abs (from 100 nM, 6 folds dilution, 8 points). After incubation at 4° C. for 60 minutes. Cells were pelleted and washed twice with 2% FBS/PBS buffer, and stained with fluorescent conjugated secondary antibody at 4° C. for 30 minutes. After that the cells were washed twice and resuspended in 80 μL of 2% FBS/PBS buffer. Fluorescent signal of binding was detected using Agilent. The EC50 was calculated using the GraphPad software.

[11] = molecular target: T3, human Claudin 6; assay: cell-based or functional assay; remark: listed apart in the source
[12] = molecular target: T3, human Claudin 6; assay: cell-based or functional assay; remark: listed apart in the source
[13] = molecular target: T3, human Claudin 6; assay: cell-based or functional assay; remark: listed apart in the source

Molecule | Top MFI [1] | Top MFI [2] | Top MFI [3] | internalization Top RLU (HEK293/H_CLDN6) [4] | Inhibition Rate (%) (HEK293/H_CLDN6) [5] | Top MFI [6] | Top MFI [7] | binding result [9] | Top MFI [10] | other results
hIgG1 Isotype (antibody) | 140 | 128 | 126 | – | – | – | – | – | – | Top MFI ([3]; record 2): 101
B1 | – | – | 165 | 446000 RLU | 83.9% | 161000 | 28800 | – | – | –
B2 | – | – | – | – | – | 117000 | 93300 | – | – | –
B3 | – | – | 227 | 710000 RLU | 78.6% | 258000 | 23500 | – | – | –
B4 | – | – | 2590 | 829000 RLU | 83.4% | 321000 | – | – | – | binding result [8]: no binding (tested: 100 nM (highest concentration tested))
B5 | 5810 | 297 | – | – | – | – | – | no binding (tested: 100 nM (highest concentration tested)) | 159000 | –
B6 | – | – | – | – | – | – | – | – | – | cytotoxicity IC50 (nM), CLDN6 High Exp HEK293 cells, 5 days [11]: 0.1 nM; cytotoxicity IC50 (nM), OV90 cells, 5 days [12]: 0.76 nM; cytotoxicity IC50 (nM), OVCAR3 cells, 5 days [12]: 0.13 nM; cytotoxicity IC50 (nM), PA-1 cells, 5 days [12]: 0.11 nM; Min cell viability, OV90 (CLDN6 low) [13]: 8%; Min cell viability, OVCAR-3 (CLDN6 mid) [13]: 3.71%; Min cell viability, PA-1 (CLDN6 high) [13]: 4.88%
B7 | – | – | – | – | – | – | – | – | – | cytotoxicity IC50 (nM), CLDN6 High Exp HEK293 cells, 5 days [11]: 0.1 nM; cytotoxicity IC50 (nM), OV90 cells, 5 days [12]: 4.66 nM; cytotoxicity IC50 (nM), OVCAR3 cells, 5 days [12]: 0.11 nM; cytotoxicity IC50 (nM), PA-1 cells, 5 days [12]: 0.46 nM
B8 | 9160 | 263 | – | – | – | – | – | no binding (tested: 100 nM (highest concentration tested)) | 185000 | –
B9 | 1660 | 249 | – | – | – | – | – | no binding (tested: 100 nM (highest concentration tested)) | 181000 | –
